Results reported in patent publication US20240360228A1 (BIOLEGEND, published 2024).
Changes are numbered by the printed parent chain.

B1: AB14 (antibody, V domains shown)
VH: EVQLVESGGGLVQPKGSLKLSCAASGFTFNTYAMNWVRQAPGKGLEWVARIRSKSNNYATYYVDSVKDRFTISRDDSQSMLYLQINNLKTEDTAMYYCVRGRELGPYSAMDYWGQGTSVTVSS
VL: DIVMTQAAPSVPVTPGESVSISCRSSKSLLHSNGNTYLYWFLQRPGQSPQLLIYRMSNLASGVPDRFSGSGSGTAFTLRISRVEAEDVGLYYCMQHLEYPFTFGGGTKLEIK
notes: Hybridoma monoclonal; Same VH/VL entries as AB15; also called antibody 14; clone 14
B2: AB12 (antibody, V domains shown)
VH: B1 VH with T28A, V48I, I51L, N57F, V63A, I85M, M95V, Y107S, S108Y
VL: B1 VL with L90V, F101Y
notes: Hybridoma monoclonal; also called antibody 12; clone 12
B3: AB15 (antibody, V domains shown)
VH: B1 VH
VL: B1 VL
notes: Hybridoma monoclonal; Same VH/VL entries as AB14; also called antibody 15; clone 15
B4: AB2 (antibody, V domains shown)
VH: QVQLKESGPGLVKPSETLSLTCTVSGFSLTSYHISWVRQPPGKGLEWMGVIWGDGSKTYNSALKSRLSISRDTSKSQVFLKMRSLKTEDTATYYCARGGDSGFAYWGQGTLVTVSS
VL: DIQMTQSPASLSASLEEIVTITCQASQDIGNWLSWYQQKPGKSPQLLIYGTTNLADGVPSRFSGSRSGTQYSLKISRLQVEDIGIYYCLQAYSVPLTFGSGTKLEIK
notes: Hybridoma monoclonal; Same VH/VL entries as AB1; also called antibody 2; clone 2
B5: AB6 (antibody, V domains shown)
VH: QVQLKESGPGLVQPSQTLSLTCTVSGFSLTSYHVSWVRQPPGKGLEWMGVIWTGGSTTYNSLLKSRLSISRDISKSQVFLKMNSLQTEDTATYYCARGGTVVKGGFAYWGQGTLVTVSS
VL: B4 VL with W32R, T51A, N53S, V94T
notes: Hybridoma monoclonal; Same VH/VL entries as AB5; also called antibody 6; clone 6
B6: AB7 (antibody, V domains shown)
VH: AVQLVESGGGLVQPKESLKISCAASGFTFSYAAMYWVRQTPGKGLEWVARIRTKPNNYATYYADSVKGRFTISRDDSKSMVYLQMDNLKSEDTAMYYCNIMGITRGYYFDYWGQGVMVTVSS
VL: DIQMTQSPSFLSASVGDRVTINCKASQNINRYLNWYQQQLGEAPKLLIYNANNLQTGIPSRFSGSRSGTDFTLTISSLQPEDVATYFCLQHNSWPWTFGGGTKLELK
notes: Hybridoma monoclonal; also called antibody 7; clone 7

These binders were tested against T1, human CCR8 (human, UniProt P51685 1-355) (assay: flow blocking, PBMC CCR8+CD4+; competitor PE-AB4).
T1 construct: Native CCR8 on human PBMC (CCR8+ CD3+ or CCR8+ CD4+ lymphocytes); also called chemokine (C-C motif) receptor 8
T1 sequence (P51685 whole entry): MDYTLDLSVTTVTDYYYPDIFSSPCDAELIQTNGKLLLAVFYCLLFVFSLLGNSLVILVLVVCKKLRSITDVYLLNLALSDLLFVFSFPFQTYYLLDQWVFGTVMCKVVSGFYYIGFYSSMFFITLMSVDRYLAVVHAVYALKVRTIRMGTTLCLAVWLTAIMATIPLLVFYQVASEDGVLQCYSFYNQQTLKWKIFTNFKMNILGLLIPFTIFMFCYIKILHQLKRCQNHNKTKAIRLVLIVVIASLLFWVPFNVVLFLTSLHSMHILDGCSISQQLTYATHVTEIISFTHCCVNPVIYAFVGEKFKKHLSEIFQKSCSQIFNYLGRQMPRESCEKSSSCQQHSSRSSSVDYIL
Procedure: (§1) For blocking studies, 100 μL of the cell suspension were incubated with 10 μg purified isotype control, AB1, AB2, AB3, AB4, AB5, AB8, AB9, AB10, AB11, AB12, AB13, AB14, AB15, and Commercial ABI antibodies, or isotype control, as blocking agents.
(§2) After incubation with the blocking agent, the cells were incubated with 0.25 μg of the indicated PE-conjugated antibody plus anti-human CD4 APC or anti-human CD3 for another 15 minutes in the dark and then washed 2 times with Cell Staining Buffer, and acquired in a FACSCanto II flow cytometer (BD Biosciences); the data was analyzed using FCS Express (De Novo Software); MFI correspond to the CCR8+ CD4+ lymphocytes or CCR8+ CD3+ lymphocytes.
(§3) Percentage original MFI was calculated by dividing the MFI of samples blocked with AB1, AB2, AB3, AB4, AB5, AB6, AB7, AB8, AB9, AB10, AB11, AB12, AB13, AB14, AB15, and Commercial ABI antibodies, by the MFI of samples blocked with the corresponding isotype control. This value was subtracted from 100 to get a blocking percentage. The formula is shown below: […]

Binder | % Blocking [%] | % Positive cells [%]
B1 | -10.1 | 1.96
B2 | -33.1 | 2.37
B3 | -1.69 | 1.81
B4 | 96.6 | 0.06

The binders below were run against T1, human CCR8 (assay: flow blocking, PBMC CCR8+CD3+; competitor PE-AB6).
Procedure: as §1, §2, §3

Binder | % Blocking [%] | MFI
B5 | -4.93 | 969
B6 | -23.2 | 1140

Each binder was assayed against T1, human CCR8 (assay: flow blocking, PBMC CCR8+CD4+; competitor PE-AB12).
Procedure: as §1, §2, §3

Binder | % Blocking [%] | % Positive cells [%]
B1 | 99.4 | 0.01
B2 | 99.4 | 0.01
B3 | 99.4 | 0.01
B4 | -8.89 | 1.96

What follows are binders tested against T1, human CCR8 (assay: flow blocking, PBMC CCR8+CD4+; competitor PE-AB14).
Procedure: as §1, §2

Binder | % Blocking [%] | % Positive cells [%]
B1 | 98.5 | 0.02
B2 | 100 | 0
B3 | 99.2 | 0.01
B4 | -15.4 | 1.5

What follows are binders tested against T1, human CCR8 (assay: flow blocking, PBMC CCR8+CD4+; competitor PE-AB5).
Procedure: as §1, §2, §3

Binder | % Blocking [%] | % Positive cells [%]
B1 | 6.93 | 1.88
B2 | -2.48 | 2.07
B3 | -17.8 | 2.38
B4 | 90.1 | 0.2

What follows are binders tested against T1, human CCR8 (assay: flow blocking, PBMC CCR8+CD4+; competitor PE-AB10).
Procedure: as §1, §2, §3

Binder | % Blocking [%] | % Positive cells [%]
B1 | 96 | 0.06
B2 | 87.8 | 0.18
B3 | 93.2 | 0.1
B4 | 2.7 | 1.44

The binders below were run against T1, human CCR8 (assay: flow blocking, PBMC CCR8+CD3+; competitor PE-AB14).
Procedure: as §1, §2, §3

Binder | % Blocking [%] | MFI
B5 | 3.88 | 831
B6 | 28.5 | 618

The binders below were run against T1, human CCR8 (assay: flow blocking, PBMC CCR8+CD4+; competitor PE-AB3).
Procedure: as §1, §2, §3

Binder | % Blocking [%] | % Positive cells [%]
B1 | -27.5 | 2.18
B2 | -34.5 | 2.3
B3 | -33.3 | 2.28
B4 | 98.2 | 0.03

What follows are binders tested against T1, human CCR8 (assay: flow blocking, PBMC CCR8+CD3+; competitor PE-AB10).
Procedure: as §1, §2, §3

Binder | % Blocking [%] | MFI
B5 | -11.6 | 890
B6 | 12.2 | 700

These binders were tested against T1, human CCR8 (assay: flow blocking, PBMC CCR8+CD3+; competitor PE-L263G8).
Procedure: as §1, §2, §3

Binder | % Blocking [%] | MFI
B5 | -16.3 | 783
B6 | 0.82 | 668

The binders below were run against T1, human CCR8 (assay: flow blocking, PBMC CCR8+CD4+; competitor PE-AB11).
Procedure: as §1, §2, §3

Binder | % Blocking [%] | % Positive cells [%]
B1 | 98.5 | 0.03
B2 | 99 | 0.02
B3 | 85.2 | 0.29
B4 | -3.57 | 2.03

Each binder was assayed against T1, human CCR8 (assay: flow blocking, PBMC CCR8+CD3+; competitor PE-AB12).
Procedure: as §1, §2, §3

Binder | % Blocking [%] | MFI
B5 | -3.13 | 1050
B6 | 49.1 | 520

What follows are binders tested against T1, human CCR8 (assay: flow blocking, PBMC CCR8+CD3+; competitor PE-433H).
Procedure: as §1, §2, §3

Binder | % Blocking [%] | MFI
B5 | 10.7 | 792
B6 | 45.2 | 486

What follows are binders tested against T1, human CCR8 (assay: flow blocking, PBMC CCR8+CD4+; competitor PE-AB13).
Procedure: as §1, §2

Binder | % Blocking [%] | % Positive cells [%]
B1 | 96 | 0.08
B2 | 98.5 | 0.03
B3 | 91.9 | 0.16
B4 | -6.06 | 2.1

Each binder was assayed against T1, human CCR8 (assay: flow blocking, PBMC CCR8+CD3+; competitor PE-AB7).
Procedure: as §1, §2, §3

Binder | % Blocking [%] | MFI
B5 | 32.7 | 786
B6 | 47.3 | 616

These binders were tested against T1, human CCR8 (assay: flow blocking, PBMC CCR8+CD4+; competitor PE-AB2).
Procedure: as §1, §2, §3

Binder | % Blocking [%] | % Positive cells [%]
B1 | -10.4 | 1.81
B2 | -32.9 | 2.18
B3 | -28.1 | 2.1
B4 | 98.8 | 0.02

These binders were tested against T1, human CCR8 (assay: flow blocking, PBMC CCR8+CD3+; competitor PE-AB13).
Procedure: as §1, §2, §3

Binder | % Blocking [%] | MFI
B5 | 2.54 | 862
B6 | -0.34 | 888

These binders were tested against T1, human CCR8 (assay: flow blocking, PBMC CCR8+CD4+; competitor PE-AB1).
Procedure: as §1, §2, §3

Binder | % Blocking [%] | % Positive cells [%]
B1 | -25.2 | 1.94
B2 | -29.7 | 2.01
B3 | -38.7 | 2.15
B4 | 93.5 | 0.1

The binders below were run against T1, human CCR8 (assay: flow blocking, PBMC CCR8+CD4+; competitor PE-AB15).
Procedure: as §1, §2, §3

Binder | % Blocking [%] | % Positive cells [%]
B1 | 97.7 | 0.03
B2 | 94.6 | 0.07
B3 | 93.8 | 0.08
B4 | -18.6 | 1.53

What follows are binders tested against T1, human CCR8 (assay: flow blocking, PBMC CCR8+CD4+; competitor PE-433H).
Procedure: as §1, §2

Binder | % Blocking [%] | % Positive cells [%]
B1 | 22.7 | 1.36
B2 | 60.2 | 0.7
B3 | 21.6 | 1.38
B4 | 2.84 | 1.71

Each binder was assayed against T1, human CCR8 (assay: flow blocking, PBMC CCR8+CD4+; competitor PE-AB6).
Procedure: as §1, §2

Binder | % Blocking [%] | % Positive cells [%]
B1 | -3.47 | 2.09
B2 | -15.3 | 2.33
B3 | -23.8 | 2.5
B4 | 93.6 | 0.13

Each binder was assayed against T1, human CCR8 (assay: flow blocking, PBMC CCR8+CD3+; competitor PE-AB5).
Procedure: as §1, §2, §3

Binder | % Blocking [%] | MFI
B5 | 0.71 | 979
B6 | -6.64 | 1050

What follows are binders tested against T1, human CCR8 (assay: flow blocking, PBMC CCR8+CD3+; competitor PE-AB15).
Procedure: as §1, §2, §3

Binder | % Blocking [%] | MFI
B5 | 13.3 | 745
B6 | 23.2 | 660

Each binder was assayed against T1, human CCR8 (assay: flow blocking, PBMC CCR8+CD3+; competitor PE-AB8).
Procedure: as §1, §2, §3

Binder | % Blocking [%] | MFI
B5 | 33.8 | 787
B6 | 26.6 | 873

These binders were tested against T1, human CCR8 (assay: flow blocking, PBMC CCR8+CD3+; competitor PE-AB11).
Procedure: as §1, §2, §3

Binder | % Blocking [%] | MFI
B5 | -18.3 | 1100
B6 | 53.2 | 434
